Measurements reported in patent US20180344813A1, “ENGINEERED POLYPEPTIDES HAVING ENHANCED DURATION OF ACTION WITH REDUCED IMMUNOGENICITY” (priority 2016, published 2018).

Tested on: IgG molecules present in normal human sera
Experiment: Serum response analysis: ELISA of human serum IgG binding to albumin binding polypeptides
Method: Each serum sample was tested as a singlet.

CC[C@H](C)[C@H](NC(=O)[C@H](CCC(=O)O)NC(=O)[C@H](CC(=O)O)NC(=O)[C@@H](NC(=O)[C@H](CC(C)C)NC(=O)[C@H](C)NC(=O)[C@H](CCCCN)NC(=O)[C@@H](NC(=O)CNC(=O)[C@H](CCC(=O)O)NC(=O)[C@@H](NC(=O)[C@@H](NC(=O)[C@H](CCCCN)NC(=O)[C@H](C)NC(=O)[C@H](CC(N)=O)NC(=O)[C@H](CC(N)=O)NC(=O)[C@@H](NC(=O)[C@H](CC(C)C)NC(=O)[C@H](CC(N)=O)NC(=O)[C@H](CCCCN)NC(=O)[C@H](Cc1ccc(O)cc1)NC(=O)[C@H](Cc1ccc(O)cc1)NC(=O)[C@H](CC(=O)O)NC(=O)[C@H](CO)NC(=O)[C@@H](NC(=O)CNC(=O)[C@H](Cc1ccc(O)cc1)NC(=O)[C@H](CCCCN)NC(=O)[C@H](CC(=O)O)NC(=O)[C@H](CC(C)C)NC(=O)[C@H](CCC(=O)O)NC(=O)[C@H](CCCNC(=N)N)NC(=O)[C@H](CC(N)=O)NC(=O)[C@H](C)NC(=O)[C@H](CC(C)C)NC(=O)[C@@H](NC(=O)[C@H](CCCCN)NC(=O)[C@H](C)NC(=O)[C@H](CCC(=O)O)NC(=O)[C@H](C)NC(=O)[C@H](CC(C)C)NC(=O)CN)C(C)C)C(C)C)[C@@H](C)CC)[C@@H](C)O)C(C)C)C(C)C)[C@@H](C)CC)C(=O)N[C@@H](CC(C)C)C(=O)N[C@@H](C)C(=O)N[C@@H](C)C(=O)N[C@@H](CC(C)C)C(=O)N1CCC[C@H]1C(=O)O [PEP07913, reference compound]
reactivity with serum IgG (average OD-value and percentage of serum with IgG binding): highest

CC[C@H](C)[C@H](NC(=O)[C@H](C)NC(=O)[C@H](CC(=O)O)NC(=O)[C@H](CCCCN)NC(=O)[C@H](CC(C)C)NC(=O)[C@H](C)NC(=O)[C@H](CCC(=O)O)NC(=O)[C@@H](NC(=O)CNC(=O)[C@H](CCC(=O)O)NC(=O)[C@@H](NC(=O)[C@@H](NC(=O)[C@H](CCCCN)NC(=O)[C@H](C)NC(=O)[C@H](CCCCN)NC(=O)[C@H](CC(=O)O)NC(=O)[C@@H](NC(=O)[C@H](CC(C)C)NC(=O)[C@H](CCCNC(=N)N)NC(=O)[C@H](CCCCN)NC(=O)[C@H](Cc1ccc(O)cc1)NC(=O)[C@H](Cc1ccccc1)NC(=O)[C@H](CC(=O)O)NC(=O)[C@H](CO)NC(=O)[C@@H](NC(=O)CNC(=O)[C@H](Cc1ccc(O)cc1)NC(=O)[C@H](CCCCN)NC(=O)[C@H](CC(=O)O)NC(=O)[C@H](CC(C)C)NC(=O)[C@H](CCC(=O)O)NC(=O)[C@H](C)NC(=O)[C@H](CC(N)=O)NC(=O)[C@H](C)NC(=O)[C@H](C)NC(=O)[C@H](CCC(=O)O)NC(=O)[C@H](CCCCN)NC(=O)[C@H](C)NC(=O)[C@H](CO)NC(=O)[C@H](C)NC(=O)[C@H](CC(C)C)NC(=O)[C@H](CO)NC(=O)[C@H](CO)NC(=O)CN)C(C)C)[C@@H](C)CC)[C@@H](C)O)C(C)C)C(C)C)C(=O)N[C@@H](CC(C)C)C(=O)N[C@@H](C)C(=O)N[C@@H](C)C(=O)N[C@@H](CC(C)C)C(=O)N1CCC[C@H]1C(=O)O [PEP07844]
reactivity with serum IgG (average OD-value and percentage of serum with IgG binding): highest
